Series [1] relates to CcpA2CS (Staphylococcus aureus Newman). The experiment in a line: BLI. As to conditions: BLI: 25 mM Tris-HNO3, 80 mM NaNO3, 35 mM KNO3, 10 mM Mg(NO3)2, 0.1% Triton X-100, 10% glycerol, 0.1% BSA, 0.01% Tween 20, pH 7.5, 37 C; EMSA: 35 nM DNA in …. A general note: A gel shift assay detects complexes by their altered migration in electrophoresis.
Series [2] deals with CcpA (SaCcpA) (Staphylococcus aureus Newman). Kind of series: BLI. The note with it: no Ag+; 10 mM Mg2+; BLI: 25 mM Tris-HNO3, 80 mM NaNO3, 35 mM KNO3, 10 mM Mg(NO3)2, 0.1% Triton X-100, 10% glycerol, 0.1% BSA, 0.01% Tween 20, pH 7.5, 37 C; EMSA: 35 nM DNA in ….
Series [3] concerns CcpA2CS (Staphylococcus aureus Newman). The experiment in a line: BLI. As to conditions: BLI: 25 mM Tris-HNO3, 80 mM NaNO3, 35 mM KNO3, 10 mM Mg(NO3)2, 0.1% Triton X-100, 10% glycerol, 0.1% BSA, 0.01% Tween 20, pH 7.5, 37 C; EMSA: 35 nM DNA in …. This is another data set of the same source.
Series [4] concerns the target T1, CcpA (SaCcpA) (Staphylococcus aureus Newman) (UniProt P99175).
T1 sequence: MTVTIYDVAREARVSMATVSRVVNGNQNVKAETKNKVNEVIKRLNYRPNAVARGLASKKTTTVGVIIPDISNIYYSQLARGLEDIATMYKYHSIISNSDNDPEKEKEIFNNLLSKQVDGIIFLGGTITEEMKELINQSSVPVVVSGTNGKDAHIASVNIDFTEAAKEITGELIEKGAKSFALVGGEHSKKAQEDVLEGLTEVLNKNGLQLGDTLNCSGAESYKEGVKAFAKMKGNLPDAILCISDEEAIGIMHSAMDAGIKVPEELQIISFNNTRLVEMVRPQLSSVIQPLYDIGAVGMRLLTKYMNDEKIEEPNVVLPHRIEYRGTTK
The experiment in a line: EMSA. As to conditions: BLI: 25 mM Tris-HNO3, 80 mM NaNO3, 35 mM KNO3, 10 mM Mg(NO3)2, 0.1% Triton X-100, 10% glycerol, 0.1% BSA, 0.01% Tween 20, pH 7.5, 37 C; EMSA: 35 nM DNA in ….

Series [5] concerns the molecule itself. The experiment in a line: SEC; size-exclusion chromatography of purified CcpA pre-incubated with Ag+ (0.6, 1.2, 2.0 molar equivalents; CcpA^2CS with 2.0). For orientation: In gel filtration, larger molecules generally elute earlier.
Series [6] concerns the molecule itself. Kind of series: SEC; size-exclusion chromatography of purified CcpA without Ag+.

Usually Kd stands for the equilibrium constant for the complex coming apart. Low readings indicate tighter binding, high ones weaker binding. Regarding biotinylated pckA promoter probe, the Kd in series [1] came to 15.1 nM; in series [2], 16.1 nM; in series [3], 20.7 nM.

Take “ACTCGTACCACCAGTCACTATAAAATGTTGTCCTTTCATCAATTAACCTTCCTTTTCAATTATATAGAATGCAATTTATCAACTTTACATAATTGAGACAAGTTGATTATCTTTCCTAATATATATACAATAATAAGAAAATATAACATACAAATCAAAAACTAAAGGGATGTGACGTTAATGAAACTCG (double strand) [proC probe]”: the binding entry in series [4] is “no binding”.

B1: Staphylococcus aureus catabolite control protein A (CcpA), wild type (natural protein, UniProt Q5HF38 1-329, looked up)
chain: MTVTIYDVAREARVSMATVSRVVNGNQNVKAETKNKVNEVIKRLNYRPNAVARGLASKKTTTVGVIIPDISNIYYSQLARGLEDIATMYKYHSIISNSDNDPEKEKEIFNNLLSKQVDGIIFLGGTITEEMKELINQSSVPVVVSGTNGKDAHIASVNIDFTEAAKEITGELIEKGAKSFALVGGEHSKKAQEDVLEGLTEVLNKNGLQLGDTLNCSGAESYKEGVKAFAKMKGNLPDAILCISDEEAIGIMHSAMDAGIKVPEELQIISFNNTRLVEMVRPQLSSVIQPLYDIGAVGMRLLTKYMNDEKIEEPNVVLPHRIEYRGTTK
notes: catabolite control protein A (CcpA) of Staphylococcus aureus; has two cysteines, Cys216 and Cys242; Dimer by SEC without Ag+; written as the protomer for the rows of self-association; Host, tags and limits are in the ESI; also called SaCcpA; WT CcpA
What is called stoichiometry N is a count of units in the complex or per binding partner. Turning to B1, the figures for the “stoichiometry N” value in series [5] and in series [6] were 4 and 2, respectively.

B2: Staphylococcus aureus CcpA C216S mutant (natural protein)
chain: MTVTIYDVAREARVSMATVSRVVNGNQNVKAETKNKVNEVIKRLNYRPNAVARGLASKKTTTVGVIIPDISNIYYSQLARGLEDIATMYKYHSIISNSDNDPEKEKEIFNNLLSKQVDGIIFLGGTITEEMKELINQSSVPVVVSGTNGKDAHIASVNIDFTEAAKEITGELIEKGAKSFALVGGEHSKKAQEDVLEGLTEVLNKNGLQLGDTLNSSGAESYKEGVKAFAKMKGNLPDAILCISDEEAIGIMHSAMDAGIKVPEELQIISFNNTRLVEMVRPQLSSVIQPLYDIGAVGMRLLTKYMNDEKIEEPNVVLPHRIEYRGTTK
For B2, in series [5], the “stoichiometry N” value was 4.

B3: Staphylococcus aureus CcpA C242S mutant (natural protein)
chain: MTVTIYDVAREARVSMATVSRVVNGNQNVKAETKNKVNEVIKRLNYRPNAVARGLASKKTTTVGVIIPDISNIYYSQLARGLEDIATMYKYHSIISNSDNDPEKEKEIFNNLLSKQVDGIIFLGGTITEEMKELINQSSVPVVVSGTNGKDAHIASVNIDFTEAAKEITGELIEKGAKSFALVGGEHSKKAQEDVLEGLTEVLNKNGLQLGDTLNCSGAESYKEGVKAFAKMKGNLPDAILSISDEEAIGIMHSAMDAGIKVPEELQIISFNNTRLVEMVRPQLSSVIQPLYDIGAVGMRLLTKYMNDEKIEEPNVVLPHRIEYRGTTK
Take B3: the “stoichiometry N” value in series [5] was 4.

The record behind these values is PMC5855135 (Chemical Science, 2017).
